Reference: the DeepSol protein solubility set

Assay: soluble on expression in E. coli; label from the status in PepcDB or PDB records

| Sequence | soluble on expression in E. coli |
| --- | --- |
| MANSFTFWNDCVEPEDLEEMWMDPAVSAEWIDVGETKGQKVHLSRDPDGQPYLTQTEMRAVSDITVRRHFDSILDSEMICAIAELESDRKPLIMRYSKKTKETGLGILQVFEKTAAWLAGGQGYQAYNVDDNPDLLHKPFINVYFGAAYLKWLTDYQNNQRSEEFVVRAYNGGTKKATHKSTLPYWKRYLAVKESLPSRKHGDAGPSSFRPTNPASPGSNTDFTYWDSRASPEDMEDMWNQSEICKEWTKSKEERGKVRFSQDGEKRPYLSRGELKAVAEIIVSKYFSTKGIRVPLVCAIADTVCMRFVNGIKKHVGILGVDYSTASWLYSELGYRAYRVDSADDLTKPFISMYFGVAYLVWLSEYEGSQRSNQFIVQAYMKGPDHVDLEESCPLWLKFEQALSYYEESKRDSGSCVIL | not soluble |
| MANSMIFKAEGNQLIAERVFDAPRELVFKMFTEAEHLKNWWGPRGWDLTVCNIDFRPGGSWHFCMKCVDENQGDFYGYESWGKALYREIVDGEKIVYVDYFSDSEGNLSEEMPAAEITLTFIDLGGKTKIVNQVEYPSAEELQKGLDMGMEQGFTETWDRLVEYLQDIQLEHHHHHH | not soluble |
| MAPALVQRRKKVAMIGSGMIGGTMGYLCALRELADVVLYDVVKGMPEGKALDLSHVTSVVDTNVSVRAEYSYEAALTGADCVIVTAGLTKVPGKPDSEWSRNDLLPFNSKIIREIGQNIKKYCPKTFIIVVTNPLDCMVKVMCEASGVPTNMICGMACMLDSGRFRRYVADALSVSPRDVQATVIGTHGDCMVPLVRYITVNGYPIQKFIKDGVVTEKQLEEIAEHTKVSGGEIVRFLGQGSAYYAPAASAVAMATSFLNDEKRVIPCSVYCNGEYGLKDMFIGLPAVIGGAGIERVIELELNEEEKKQFQKSVDDVMALNKAVAALQAPG | soluble |
| MAPHPEAAALLARSHRLGADPRNTNYAGGNASAKGTATDPVTGGDVELMWVKGSGGDLGTLTEAGLAVLRLDRLHALKGVYPGVEREDEMVAAFDYCLHGKGGAAPSIDTAMHGLVDAAHVDHLHPDSGIALACAADGEKLTAECFGDSVAWVPWRRPGFQLGLDIAAVKEANPQTIGCVLGGHGITAWGATAEECERNSLHIIRTAEAFLAERGKAEPFGPVIEGYAALEHHHHHH | not soluble |
| MAPKFTLNQERDNDRERTRASYNNDRRRNDYDPRACYKCGKLGHFARSCHVVTQPTTAYITCYFCSEEGHRSNGCPNKRTDQVNPKGHCYWCGNQDHRFNLIIWRSRCLFRLMKPKYAF | soluble |
| MAPKSILITGANRGIGLGLLKQFIKNKDVQIIIGTCRDPSNATELNSIKDTRVHILQLDIDCDDSIRKLGAEVEKLVGEDGLTVLINNAGIFVPYDIDGEKSRSTLIRQLETNTISTVLITQELLPLLKRAAAKNRGEGYSINRSAIINISSTAGSITKIDASYNIPLVAYRMSKSALNSFGKSCSVDLAKYHILVTTFCPGWVKTDMGGANGKLEIDDATKTLSDNILILGDAHHGAYLNADLTVIPN | soluble |
| MAPSSLSQSFDHAAQTPEIFEKVPSRTVGRKATITKEELFQAALNLIGPEKSISSLSLREVAREAGIAPNSFYRHFRDIDELAIDLINRAGLVLRHIIRESRLQASKQNSIIRSSVEVFIQQLDADEGNLSLLLREAYTGSKSYKEAVERQLNFFQQELQEDLIRLERLNHSRLSHPDLVARAITQLVFTMGAKVLDLPINQRTAVAEQTMIMIRMILEGARHLDESKIR | soluble |
| MAQEEEDVRDYNLTEEQKAIKAKYPPVNRKYEYLDHTADVQLHAWGDTLEEAFEQCAMAMFGYMTDTGTVEPLQTVEVETQGDDLQSLLFHFLDEWLYKFSADEFFIPRVGRRIFIVQAPSGNRSQSNNIFSNAGL | soluble |
| MAQHTYDEESVQELLGWAKKMLETKNYPTEKYQVNACTSIIDGKLYLESLISMISKNWENPTFHPTIEQLWEYREKWEGQKE | not soluble |
| MAQLFFRYGAMNSGKTIEILKVAHNYEEQDKSVIILTSGLDNRDGVGYVASRIGLKREATPVFDDTNIFEIVKQTNPDAACVLIDEAQFLKKHHVLELADIVDELKIPVMTFGLKNDFRNELFEGSKYLLLYADKIEEMKTICWFCRKKAIMNLRFHDGQPVYEGEQVQIGGNEAYYPVCRHHYFYPPKLTKLEHHHHHH | soluble |
| MAQRYKRMSSTDINEYMPENLAKAIANPLFPALDSLLRAGRHVSSDDLDNHAFLSDFEPDLALFYQRYHTELVRAPEGFFYLRPRSTSLINRSVLSELDMLVGKVLCFLYLSPERLAHEGIFTNQELYDELLTLVEEKKLMKLVTNRASGSDLDREKLFEKVRTSLRRLRRLGMVITIGDTGKFRITEAVFRFGADVRLGGDVREAQLRLIRDGEAVVHTPEPSQQSLLENPTAEYDEEQTEWEDEALEHHHHHH | soluble |
| MAQSETVERILDAAEQLFAEKGFAETSLRLITSKAGVNLAAVNYHFGSKKALIQAVFSRFLGPFCASLEKELDRRQAKPEAQHATLEDLLHLLVSQAMAVKPRSGNDLSIFMRLLGLAFSQSQGHLRKYLEEVYGKVFRRYMLLVNEAAPKLPPIELFWRVHFMLGAAAFSMSGIKALRAMAETDFGVNTSTEQVMHLMVPFFAAGMRAESGIDDPLLAGAQLRPRNKTPAKA | soluble |
| MAQVLRGTVTDFPGFDERADAETLRKAMKGLGTDEESILTLLTSRSNAQRQEISAAFKTLFGRDLLDDLKSELTGKFEKLIVALMKPSRLYDAYELKHALKGAGTNEKVLTEIIASRTPEELRAIKQVYEEEYGSSLEDDVVGDTSGYYQRMLVVLLQANRDPDAGIDEAQVEQDAQALFQAGELKWGTDEEKFITIFGTRSVSHLRKVFDKYMTISGFQIEETIDRETSGNLEQLLLAVVKSIRSIPAYLAETLYYAMKGAGTDDHTLIRVMVSRSEIDLFNIRKEFRKNFATSLYSMIKGDTSGDYKKALLLLCGEDD | soluble |
| MARKKVQRKLDGWKSKEWYNIEAPAYLNRVIVGTTMAGDPSLLVGRNVETTVGELTNDMTKNNTKVILRVNNVVGDIATTDLMGHELTTDYVRSIVKRQTSRIDANVDVRTKDGFVIRVKPTCFTIKRARSSQMQAIREMMVDIVKKRASETDFETFMQEAILGRLSAAIYRQAKFIYPLRRVEIRKTQVEAMPAAAPAAPAAALEHHHHHH | soluble |
| MARKLIDISVPLQNDVPADPPGNHPTIQYIDHQQGLPRMLQFFPGLKAEDLPDGQGWAVEQVSLSTHNGTHLDAPWHFHPTMNRGERALTIDEVPLDWCLQPGVKLDFRHLPDGYVVTAKDVENELERIGHTLAPLEIVVVNTSAGAKFGRPDYVNSGCGVGYEATMYLLERGVRLTGTDAWSWDAPFVFTAQRYAETKDASLIWEGHKASRHIGYCHLEKLHNLELLPATGFMVSCFPVKIERASAGWTRAVAILNDAAALEHHHHHH | soluble |
| MARKSKGSRSSTRAVKQTDHFQVDVKLQSRPDHVRAPRANNENVNYTPVKEAKIQKILDHQLYNTHYVEYQVEMSDGTEEMLTEFDFDNKKTQKMLAEYKFKVTELEDDGSKEYVVEKIVAHRYPNDRLNQPLYLVMWRGFPDPVSNTEMWGEELENCQELLDAYNEEHDIDLSKTVMNKPPKKSKHQDTSDDSEESEDEEEKSPRKRSSKKRRAASVSDSDSDSDSDFDKKKWKKNKAKRSKRDDSSDDDSEMERRRKKSKKSKKSKKFKKSEKRKRAVNDSSSDDEDEEEKPEKRSKKSKKAVIDSSSEDEEEEKSSKKRSKKSKKESDEEQQASDSEEEVVEVKKNSKSPKKTPKKTAVKEESEESSGDEEEEVVKKKKSSKINKRKAKESSSDEEEEVEESPKKKTKSPRKSSKKSAAKEESEEESSDNEEEEEVDYSPKKKVKSPKKSSKKPAAKVESEEPSDNEEEEEEVEESPIKKDKTPRKYSRKSAAKVESTESSGNEEEEEVEESPKKKGKTPRKSSKKSAAVEESDNEEEDVEESPKKRTSPRKSSKKRAAKEESEESSDNEVEEVEDSPKKNDKTLRKSPRKPAAKVESEESFGNEEEEEVEESPKKKGKTPRKSSKKSAAKEESEESSDDEEEEQAEETNGSHTESPTKSKTDESDNSTSSDEDDE | not soluble |
| MARKTKQQALETRQHILDVALRLFSQQGVSATSLAEIANAAGVTRGAIYWHFKNKSDLFSEIWELSESNIGELEIEYQAKFPDDPLSVLREILVHILEATVTEERRRLLMEIIFHKCEFVGEMVVVQQAQRSLCLESYDRIEQTLKHCINAKMLPENLLTRRAAILMRSFISGLMENWLFAPQSFDLKKEARAYVTILLEMYQLCPTLRASTVNGSP | not soluble |
| MARNNNQVKRDAAGRLFFLLDRQYRLVIQQVVALKPHVLAIAARQGMFVAKAYRFPVAAARHAWLLAALRKAGFSAAPAPMPIGRGGVVEAGGCYWLLTEYVAGARPISFAAWADAADGLHLLERYHTITANIASSKQEAMGLPRAQLYDKWRRRYEEFCRHLPVVETIMDKEDILFTLSWADYCLSTCREHAPELTADSAAIIHGDVASHNFLRTTTGQMYLIDYDAAALASPGLDYCQYANRLLPYIGWSYSTLARFAPLRRWLEKRWFLHALLFPADVFREWRSAAARRRPLVFDRKRRERFVRRLYAMLQ | not soluble |
| MARNPEEAQRVVIPLGSEEALAFLGQADRNLKRLRSLFRTYLGDEVRLVSRGEQVEVLGPPEAVEKAERALRDLLALLRQGAELDEATLEQAVRLAAEGEGLYQATEPELELQLPGRLRPKTPGQKRYVEAIARHDITFGIGPAGTGKTYLAVAMAVSHLRARRVKRIILTRPAVEAGEKLGFLPGDIQAKVDPYLRPLYDALFDMIDAERFEQYLQSGIIEVAPLAFMRGRTLNDAFIILDEAQNTTPEQMKMFLTRMGFSSKMVITGDVTQIDLPKHQRSGLVEAIRILKGIEGIAFVHFKESDVVRHPLVARIIKAYEEAERGGGGAQ | soluble |
| MARTEKKKDVVIVGLGWTGAIAGMELAAEGLEIVALERGRDQNTVPEFKYPNQIDELTYGVRLVNMQHPSQQTVTVRRNDAETALPYRSMGSFLPANGVGGAGTHWNGLLWRPQPQEIQLRSYVKERWGESIIPEGMNLMDYPVTYDELEPFFTRFDEVAGISGKAGNLKGKIQPGGNPFEGWRSSEYPMPPMPPTYDATKFRDAAQAMGYHPFPAPAGVASTAYVNPYGMQMAPCNFCGFCERFGCYQYSKSSPQTAILDALKRKPNFSYRTHAEVLRIESSADGKTATGVTYFDAAAQEEVFQPADLVILAAYQLNNVHLLLLSGIGEPYDPATNTGVTGKNYAYQMNGGVTMFFKDANFNPFIGHGSNGFCIDDFSVNQNDFGALGFIGGAYWRSGTFNGQPIRSMILPAGTPGWGAGWKKAIGQWYGHSMSIGTHGSHMAYRANHLDLDPTYKDPHGRPLMRMTFNWQDNDLRMNQYMKLKAGEVGKAMKPDLMQLGFKGPGAMYDVRPYQTTHNTGGHIMSRDPREGVVNRYCQAWDKHNVFVMGAGNFVQNTQYNPTGMVGALAYWTIHAIRTQYLRDPRPLVLEHHHHHH | not soluble |
| MARTVDLELEAQIDILRDNNKKYENILKLAQTLSTQLFQMVHTQKQLGDAFADLSLKSLELHEKFGYNADTQKLLAKNGETLLGAINFFIASVNTLVNKTIEDTLMTVKQYENARVEYDAYRTDLEELNLGPRDANTLPKIEQSQHLFQIHKEKYDKMRSDVSVKLKFLEENKVKVLRNQLVLFHSAVAAYFAGNQKQLELTLKQFHVRLKTPGVDAPSWLEEQ | soluble |
